Where only a bound is given, the exact number is not on record here.

As a reminder, the EC50 is the midpoint of the concentration-response curve.

The target of the experiment is Human Semaphorin3G (Abnova) (human) (UniProt Q9NS98). Put plainly: ELISA, coated GST-Sema3G, antibody 0.00015-10 ug/ml. For orientation: In an ELISA, binding on a coated surface is turned into a signal by an enzyme label.
Human Semaphorin3G (Abnova) (human), sequence (Q9NS98 23-782 limits assumed, form in doubt): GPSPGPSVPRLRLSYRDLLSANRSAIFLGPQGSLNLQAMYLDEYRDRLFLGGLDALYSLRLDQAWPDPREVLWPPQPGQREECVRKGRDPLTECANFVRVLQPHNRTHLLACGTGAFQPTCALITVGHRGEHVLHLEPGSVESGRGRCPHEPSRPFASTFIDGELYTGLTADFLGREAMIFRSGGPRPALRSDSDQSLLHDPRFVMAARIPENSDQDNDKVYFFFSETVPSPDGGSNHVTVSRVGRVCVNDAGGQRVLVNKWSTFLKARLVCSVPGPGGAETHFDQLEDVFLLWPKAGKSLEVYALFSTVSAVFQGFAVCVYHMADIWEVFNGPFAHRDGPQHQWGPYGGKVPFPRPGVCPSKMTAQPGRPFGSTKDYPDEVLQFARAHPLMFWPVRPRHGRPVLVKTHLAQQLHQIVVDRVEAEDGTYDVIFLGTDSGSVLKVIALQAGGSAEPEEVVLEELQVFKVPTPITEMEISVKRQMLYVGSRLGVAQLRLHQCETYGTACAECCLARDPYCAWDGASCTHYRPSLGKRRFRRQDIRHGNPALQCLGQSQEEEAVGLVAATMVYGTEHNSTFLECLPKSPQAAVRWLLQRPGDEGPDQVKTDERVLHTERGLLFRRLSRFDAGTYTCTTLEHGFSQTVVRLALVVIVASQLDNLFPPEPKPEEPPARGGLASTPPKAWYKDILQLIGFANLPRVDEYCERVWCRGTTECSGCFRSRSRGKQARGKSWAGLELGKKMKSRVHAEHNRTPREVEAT

B1: TPP-30791 (antibody, human IgG1, kappa, V domains shown)
VH: EVQLVESGGGLLQLGGSLRLSCAASGFTFSSYYMSWVRQAPGKGLEWVSTIIKSGGYAYYPDSVKDRFTISRDNSKNTLNLQMNSLRAEDTAVYYCVKGGQGAMDYWGQGTTVTVSS
VL: EIVLTQSPATLSLSPGERATLSCRASQSIGDYLHWYQQKPGQAPRLLIKYASQSISGIPARFSGSGSGTDFTLTISSLEPEDFAVYYCQQGYSFPYTFGGGTKLEIKR
As for B1, the EC50 was over 66.7 µM.

B2: TPP-30788 (antibody, human IgG1, kappa, V domains shown)
VH: EVQLVESGGGLVQPGGSLRLSCAASGFTFSSYYMSWVRQAPGKGLEWVSTIIKSGGYAYYPDSVKDRFTISRDNSKNTLYLQMSSLRAEDTAVYYCVRGGQGAMDYWGQGTTVTVSS
VL: EIVLTQSPATLSLSPGERATLSCRASQSIGDYLHWYQQKPGQAPRLLIKYASQSISGIPARFSGSGSGTDFTLTITSLEPEDFAVYYCQQGYSFPYTFGGGTKLEIKR
For the molecule B2, the EC50 is over 66.7 µM.

B3: TPP-30790 (antibody, human IgG1, kappa, V domains shown)
VH: EVQLVESGGGLVQLGGSLRLSCAASGFTFSSYYMSWVRQAPGKGLEWVSTIIKSGGYAYYPDSVKDRFTISRDNSKNTLYLQMNSLRAEDTAVYYCVKGGQGAMDYWGQGTTVTVSS
VL: EIVLTQSPATLSLSPGERATLSCRASQSIGDYLHWYQQKPGQAPRLLIYYASQSISGIPARFSGSGSGTDFTLTISSLEPEDFAVYYCQQGYSFPYTFGGGTKLEIKR
On to B3, for which the EC50 is over 66.7 µM.

B4: TPP-30789 (antibody, human IgG1, kappa, V domains shown)
VH: EVQLVESGGGLVQPGGSLRLSCAASGFPFSSYYMSWVRQAPGKGLEWVSTIIKSGGYAYYPDSVKDRFTISRDNSKNTLYLQMSSLRAEDTAVYYCVRGGQGAMDYWGQGTTVTVSS
VL: EIVLTQSPATLSLSPGERATLSCRASQSIGDYLHWYQQKPGQAPRLLIKYASQSISGIPARFSGSGSGTDFTLTITSLEPEDFAVYYCQQGYSFPYTFGGGTKLEIKR
For B4, the concentration giving a half-maximal response (EC50) was over 66.7 µM.

For the origin of these results see US20240254222A1.
